Experimental data as given in patent US20130095108.

Legend:
[1] = molecular target: T1, Corn Trypsin Inhibitor (CTI, Calbiochem), P01088
T1 chain: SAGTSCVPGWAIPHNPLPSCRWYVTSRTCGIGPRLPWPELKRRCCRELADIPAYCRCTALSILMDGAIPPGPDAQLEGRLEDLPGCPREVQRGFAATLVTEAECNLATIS

[2] = molecular target: Peptide LRG20 (position 166-185) from uPAR's domain 2
[3] = molecular target: Peptide TCK from uPAR's domain 2 (position 196-214)

Protein	FXII activity assay using chromogenic substrate [1]	[3H]-thymidine incorporation in murine lung fibroblasts [1]	p44/42 and Akt phosphorylation (Western blot) in murine lung fibroblasts [1]	[3H]-thymidine incorporation in murine lung fibroblasts [2]	[3H]-thymidine incorporation in murine lung fibroblasts (random peptide)	[3H]-thymidine incorporation in murine lung fibroblasts [3]
FXII in bronchoalveolar lavage fluid (BALF) from IPF patients (protein) IPPWEAPKEHKYKAEEHTVVLTVTGEPCHFPFQYHRQLYHKCTHKGRPGPQPWCATTPNFDQDQRWGYCLEPKKVKDHCSKHSPCQKGGTCVNMPSGPHCLCPQHLTGNHCQKEKCFEPQLLRFFHKNEIWYRTEQAAVARCQCKGPDAHCQRLASQACRTNPCLHGGRCLEVEGHRLCHCPVGYTGAFCDVDTKASCYDGRGLSYRGLARTTLSGAPCQPWASEATYRNVTAEQARNWGLGGHAFCRNPDNDIRPWCFVLNRDRLSWEYCDLAQCQTPTQAAPPTPVSPRLHVPLMPAQPAPPKPQPTTRTPPQSQTPGALPAKREQPPSLTRNGPLSCGQRLRKSLSSMTRVVGGLVALRGAHPYIAALYWGHSFCAGSLIAPCWVLTAAHCLQDRPAPEDLTVVLGQERRNHSCEPCQTLAVRSYRLHEAFSPVSYQHDLALLRLQEDADGSCALLSPYVQPVCLPSGAARPSETTLCQVAGWGHQFEGAEEYASFLQEAQVPFLSLERCSAPDVHGSSILPGMLCAGFLEGGTDACQGDSGGPLVCEDQAAERRLTLQGIISWGSGCGDRNKPGVYTDVAYYLAWIREHTVS	The specificity of performed assay was proved by blockade of FXII activity by its inhibitor, Corn Trypsin Inhibitor (CTI)	–	–	–	–	–
FXIIa (activated factor XII; American Diagnostica, Stamford, Conn.) (protein) IPPWEAPKEHKYKAEEHTVVLTVTGEPCHFPFQYHRQLYHKCTHKGRPGPQPWCATTPNFDQDQRWGYCLEPKKVKDHCSKHSPCQKGGTCVNMPSGPHCLCPQHLTGNHCQKEKCFEPQLLRFFHKNEIWYRTEQAAVARCQCKGPDAHCQRLASQACRTNPCLHGGRCLEVEGHRLCHCPVGYTGAFCDVDTKASCYDGRGLSYRGLARTTLSGAPCQPWASEATYRNVTAEQARNWGLGGHAFCRNPDNDIRPWCFVLNRDRLSWEYCDLAQCQTPTQAAPPTPVSPRLHVPLMPAQPAPPKPQPTTRTPPQSQTPGALPAKREQPPSLTRNGPLSCGQRLRKSLSSMTRVVGGLVALRGAHPYIAALYWGHSFCAGSLIAPCWVLTAAHCLQDRPAPEDLTVVLGQERRNHSCEPCQTLAVRSYRLHEAFSPVSYQHDLALLRLQEDADGSCALLSPYVQPVCLPSGAARPSETTLCQVAGWGHQFEGAEEYASFLQEAQVPFLSLERCSAPDVHGSSILPGMLCAGFLEGGTDACQGDSGGPLVCEDQAAERRLTLQGIISWGSGCGDRNKPGVYTDVAYYLAWIREHTVS	–	FXII-induced proliferation was blocked by FXIIa specific inhibitor, CTI	CTI attenuated p44/42 and Akt phosphorylation after 30 min of FXIIa exposure	Peptide LRG20 (position 166-185) from uPAR's domain 2 blocked increase in DNA synthesis after FXIIa stimulation	peptide TCK from domain 2 (position 196-214) and random peptide had no effect on FXIIa induced proliferation	peptide TCK from domain 2 (position 196-214) and random peptide had no effect on FXIIa induced proliferation
